Values quoted from earlier work, collected in article PMC2666074 (Biochemistry, 2008).

Test system: β-catenin in HEK293 cells
Details: no detectable levels of S100A6, ref Matsuzawa and Reed (2001)

B1: Siah-1: Siah-1 overexpressed by transient transfection of pSiah-1-FLAG (protein, UniProt Q8IUQ4 1-282, looked up)
E3 ubiquitin-protein ligase …: MSRQTATALPTGTSKCPPSQRVPALTGTTASNNDLASLFECPVCFDYVLPPILQCQSGHLVCSNCRPKLTCCPTCRGPLGSIRNLAMEKVANSVLFPCKYASSGCEITLPHTEKADHEELCEFRPYSCPCPGASCKWQGSLDAVMPHLMHQHKSITTLQGEDIVFLATDINLPGAVDWVMMQSCFGFHFMLVLEKQEKYDGHQQFFAIVQLIGTRKQAENFAYRLELNGHRRRLTWEATPRSIHEGIATAIMNSDCLVFDTSIAQLFAENGNLGINVTISMC
modifications: FLAG tag
- level of β-catenin upon Siah-1 transfection, in words: reduced levels of β-catenin
